Reference: publication PMC2628611

Biological target: GST-DOC2b (wild type) (mouse) (UniProt P70169)
Experiment: pull-down

Sequence of UniProt P70169 (P70169 whole entry): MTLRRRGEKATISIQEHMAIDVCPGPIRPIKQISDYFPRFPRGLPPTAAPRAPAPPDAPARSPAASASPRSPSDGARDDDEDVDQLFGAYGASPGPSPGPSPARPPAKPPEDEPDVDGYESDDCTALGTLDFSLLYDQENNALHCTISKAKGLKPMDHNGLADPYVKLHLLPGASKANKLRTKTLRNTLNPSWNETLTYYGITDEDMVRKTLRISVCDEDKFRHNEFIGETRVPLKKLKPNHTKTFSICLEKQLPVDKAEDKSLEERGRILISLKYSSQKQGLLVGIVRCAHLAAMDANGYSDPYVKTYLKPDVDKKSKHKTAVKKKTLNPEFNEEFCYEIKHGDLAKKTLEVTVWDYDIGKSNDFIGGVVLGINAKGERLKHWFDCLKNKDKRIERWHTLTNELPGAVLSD

For “recombinant syntaxin-4 (cleaved from GST syntaxin-4) (from UniProt P70452 1-298) (natural protein)”, the percent of syntaxin-4 pulled down was 5%.
